In experiment [1] the target is T1, Cyno DLL3-His (cynomolgus monkey, UniProt Q9NYJ7 27-492 (human entry)).
T1 construct: also called cy DLL3; recombinant cyno DLL3-ECD
T1 chain: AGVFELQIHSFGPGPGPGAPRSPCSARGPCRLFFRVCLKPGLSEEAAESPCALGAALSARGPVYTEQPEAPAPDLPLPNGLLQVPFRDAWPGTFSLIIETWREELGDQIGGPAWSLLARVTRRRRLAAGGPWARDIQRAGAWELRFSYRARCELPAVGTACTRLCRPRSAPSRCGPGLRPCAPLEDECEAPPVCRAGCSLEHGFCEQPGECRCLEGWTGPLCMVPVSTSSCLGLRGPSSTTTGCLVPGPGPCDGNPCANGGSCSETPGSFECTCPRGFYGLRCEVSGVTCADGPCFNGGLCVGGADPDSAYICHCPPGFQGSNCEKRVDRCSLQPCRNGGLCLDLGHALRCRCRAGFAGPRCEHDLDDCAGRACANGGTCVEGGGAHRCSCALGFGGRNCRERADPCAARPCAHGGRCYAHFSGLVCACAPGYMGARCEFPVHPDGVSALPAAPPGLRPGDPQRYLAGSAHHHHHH
Description: SPR; ratio of the KD values for human and cyno DLL3. As for the experimental part: (§1) The binding affinity of purified DLL3/CD3 bispecific constructs for recombinant human and cyno DLL3-ECD and Fc-fusion proteins of human and cyno CD3 εγ subunits was determined by Surface Plasmon Resonance (SPR), using a ProteOn XPR36 instrument (Bio-Rad). The running buffer and all dilutions (except where stated) were done in PBS-T-EDTA. The GLM sensor chip (Bio-Rad) was normalized and pre-conditioned as per the manufacturer's recommendations. The sensor chip was activated with equal mixture of EDC/s-NHS in the horizontal direction for 300 sec at a flow rate of 30 ul/min and immobilized with protein A/G (20 ug/ml in 10 mM acetate pH 4.5) in the horizontal direction for 300 sec at a flowrate of 30 ul/min resulting in ˜5000 RU of protein A/G on the surface. The sensor chip was deactivated with 1M ethanolamine HCl in the horizontal direction for 300 sec at a flowrate of 30 μl/min.
(§2) For binding kinetic determination to DLL3, bispecific molecules were captured individually on the protein A/G surface vertically for 250 sec at a flowrate of 25 μl/min. The baseline was stabilized by injecting PBS-T-EDTA for 60 sec at a flowrate of 40 μl/min horizontally. The analyte (hu DLL3 or cy DLL3) was injected horizontally over the captured antibody for 600 sec at a flowrate of 40 μl/min and a dissociation for 2700 sec.
(§3) The inter spot (interactions with sensor surface) and blank (PBS-T-EDTA) were subtracted from the raw data.

In experiment [2] the target is T2, chicken egg white lysozyme (chicken, UniProt P00698 19-147).
T2 construct: also called Lysozyme (positive)
Description: SPR (Biacore T200), lysozyme coupled to CM5 chip, non-specific binding assay. As for the experimental part: The experiment was performed on a Biacore T200. The dilution, surface preparation, and binding experiments were performed at 25° C. in 1×HBS-EP buffer prepared from 10× HBS-EP. The flow rate for both the immobilization protocol and binding experiment was at 5 μL/min.
To prepare the surface for the non-specific binding experiment, chicken egg white lysozyme and trypsin inhibitor from glycine max soybean were coupled manually to a series S CM5 chip with the surface density of 3000-5000 RU using the amine coupling kit according to the manufacture instructions.
Samples were prepared at 1 μM in 1×HBS-EP buffer. The samples were injected over activated surfaces with a 10 min association and 10 min dissociation. The data was collected using Biacore T200 Control Software version 2.0.1 and analyzed using Biacore T200 Evaluation Software version 3.0.

Experiment [3] concerns the target T1, Cyno DLL3-His. Description: SPR (ProteOn XPR36), bispecific captured on protein A/G, DLL3 as analyte, Example 4A. As for the experimental part: as §1, §2, §3
The target in the next experiment is T3, Human CD3 E+G HuFc-6xHis (human).
T3 construct: also called hu CD3εγ-Fc
Description: SPR (ProteOn XPR36), CD3εγ-Fc amine-coupled, bispecific as analyte, equilibrium fit, Example 4A. The method, then:
as §1
For binding kinetic determination to CD3, hu CD3εγ-Fc and cy CD3εγ-Fc (dissolved in pH 4.5 acetate) was immobilized directly onto the sensor surface through amine coupling for 140 sec at a flowrate of 30 μl/min vertically. The baseline was stabilized by injecting PBS-T-EDTA for 60 sec at a flowrate of 40 μl/min horizontally. The analyte (the bispecific molecule) was injected horizontally over the captured CD3εγ-Fc construct for 600 sec at a flowrate of 40 μl/min and a dissociation for 600 sec.
as §3

Experiment [4] addresses T4, human DLL3 (endogenous, on SCLC cell lines NCI-H82 and SHP77 and in SCLC tissue) (human, UniProt Q9NYJ7 27-618).
T4 construct: whole, on cells; also called SCLC cell lines expressing DLL3
T4 sequence (looked up): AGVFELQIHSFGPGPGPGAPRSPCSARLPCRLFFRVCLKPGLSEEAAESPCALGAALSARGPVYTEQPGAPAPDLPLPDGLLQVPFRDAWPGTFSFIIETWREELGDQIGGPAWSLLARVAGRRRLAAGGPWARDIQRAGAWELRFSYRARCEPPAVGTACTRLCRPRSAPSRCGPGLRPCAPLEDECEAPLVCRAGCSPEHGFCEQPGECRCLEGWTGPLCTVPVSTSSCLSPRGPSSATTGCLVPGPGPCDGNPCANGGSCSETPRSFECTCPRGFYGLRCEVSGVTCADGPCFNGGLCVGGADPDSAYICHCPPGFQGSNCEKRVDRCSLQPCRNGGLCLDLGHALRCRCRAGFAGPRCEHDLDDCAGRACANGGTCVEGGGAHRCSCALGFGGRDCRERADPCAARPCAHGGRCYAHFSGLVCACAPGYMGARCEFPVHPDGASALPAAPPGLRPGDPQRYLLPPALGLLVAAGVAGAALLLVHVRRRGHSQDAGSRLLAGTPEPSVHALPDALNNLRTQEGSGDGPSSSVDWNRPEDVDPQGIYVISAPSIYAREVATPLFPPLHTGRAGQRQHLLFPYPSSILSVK
Briefly: flow cytometry titration on NCI-H82 cells, PE anti-human secondary, x-fold over background. An excerpt: Cells (T cells or human SCLC cells) were stained with increasing concentrations of two-step purified DLL3/CD3 binding proteins with increasing concentrations in FACS buffer (PBS/0.5% BSA/0.05% sodium azide). Bound molecules were detected with PE-conjugated anti-human secondary antibody (Sigma-Aldrich, #P8047).

T3 sequence (chain, as listed by the source limits assumed): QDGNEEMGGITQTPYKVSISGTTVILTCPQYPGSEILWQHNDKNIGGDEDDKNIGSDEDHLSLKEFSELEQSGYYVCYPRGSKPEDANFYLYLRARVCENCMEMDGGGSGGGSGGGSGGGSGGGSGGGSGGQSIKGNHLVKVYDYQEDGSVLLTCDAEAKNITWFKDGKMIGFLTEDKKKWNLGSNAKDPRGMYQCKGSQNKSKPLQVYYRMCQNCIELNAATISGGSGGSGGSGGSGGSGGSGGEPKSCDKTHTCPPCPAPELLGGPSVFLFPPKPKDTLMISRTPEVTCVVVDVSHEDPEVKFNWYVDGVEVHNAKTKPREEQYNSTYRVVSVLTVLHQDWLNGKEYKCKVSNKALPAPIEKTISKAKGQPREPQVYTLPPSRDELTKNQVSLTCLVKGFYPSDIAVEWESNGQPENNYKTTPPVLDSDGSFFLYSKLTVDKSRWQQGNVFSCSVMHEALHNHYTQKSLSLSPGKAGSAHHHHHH
T2 sequence (P00698 19-147): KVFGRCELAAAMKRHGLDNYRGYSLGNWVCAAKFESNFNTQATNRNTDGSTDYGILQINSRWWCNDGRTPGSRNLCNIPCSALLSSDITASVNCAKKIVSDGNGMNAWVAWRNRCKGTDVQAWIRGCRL

B1: DLL3#3/CD3#1 (bispecific antibody, human IgG1, kappa, lambda, L234A L235A)
chain 1: DIQMTQSPSAMSASVGDRVTITCRASQGISNYLVWFQQKPGKAPKRLIYAVSSLYSGVPSRFSGSGSGTEFTLTISSLQPEDFATYYCLQHDSYPYTFGQGTKLEIKRTVAAPSVFIFPPSDEQLKSGTASVVCLLNNFYPREAKVQWKVDNALQSGNSQESVTEQDSKDSTYSLSSTLTLSKADYEKHKVYACEVTHQGLSSPVTKSFNRGECGGGGSEGKSSGSGSESKSTEGKSSGSGSESKSTGGGGSQVQLVQSGAEVKKPGASVKVSCKASGYTFTSYYVHWVRQAPGQGLEWMVIINPGGGTTSYAQKFLGRVTMTRDTSTNTVYMELKSLRSEDTAVYYCARGEAVTGNYFYYGMDVWGQGTTVTVSSASTKGPSVFPLAPSSKSTSGGTAALGCLVKDYFPEPVTVSWNSGALTSGVHTFPAVLQSSGLYSLSSVVTVPSSSLGTQTYICNVNHKPSNTKVDKRVEPKSCDKTHTCPPCPAPEAAGGPSVFLFPPKPKDTLMISRTPEVTCVVVDVSHEDPEVKFNWYVDGVEVHNAKTKPREEQYNSTYRVVSVLTVLHQDWLNGKEYKCKVSNKALPAPIEKTISKAKGQPREPQVYTLPPSREEMTKNQVSLWCLVKGFYPSDIAVEWESNGQPENNYKTTPPVLDSDGSFFLYSKLTVDKSRWQQGNVFSCSVMHEALHNHYTQKSLSLSPG
chain 2: EAVVTQEPSLTVSPGGTVTLTCRSSTGAVTTSNYANWVQEKPGQLPRGLIGGTNKRAPWVPARFSGSLLGGKAALTLSGAQPEDEAEYFCALWYSNLWVFGGGTKLTVLGQPKAAPSVTLFPPSSEELQANKATLVCLISDFYPGAVKVAWKADGSPVNTGVETTTPSKQSNNKYAASSYLSLTPEQWKSHRSYSCQVTHEGSTVEKTVAPAECSGGGGSEGKSSGSGSESKSTEGKSSGSGSESKSTGGGGSEVQLVESGGGLVQPGGSLKLSCAASGFTFNTYAMNWVRQAPGKGLEWVARIRSKYNNYATYYADSVKDRFTISRDDSKNTAYLQMNNLKTEDTAVYYCVRHGNFGNSYVSWFAYWGQGTLVTVSAASTKGPSVFPLAPSSKSTSGGTAALGCLVKDYFPEPVTVSWNSGALTSGVHTFPAVLQSSGLYSLSSVVTVPSSSLGTQTYICNVNHKPSNTKVDKRVEPKSCDKTHTCPPCPAPEAAGGPSVFLFPPKPKDTLMISRTPEVTCVVVDVSHEDPEVKFNWYVDGVEVHNAKTKPREEQYNSTYRVVSVLTVLHQDWLNGKEYKCKVSNKALPAPIEKTISKAKGQPREPQVYTLPPSREEMTKNQVSLSCAVKGFYPSDIAVEWESNGQPENNYKTTPPVLDSDGSFFLVSKLTVDKSRWQQGNVFSCSVMHEALHNRFTQKSLSLSPG
notes: Heterodimer of one DLL3 chain and one CD3 chain (scFab-Fc, knob-in-hole)
Turning to B1, the “Affinity gap KD hu/cyno DLL3” value in the experiment with Cyno DLL3-His [1] was determined as 1. Besides, in experiment [2], the binding result is “no binding (tested: 1 µM)”. For the same molecule, the dissociation constant (Kd) with Cyno DLL3-His [3] is less than 0.01 nM; with Human CD3 E+G HuFc-6xHis, 7 nM.

B2: DLL3#13/CD3#1 (bispecific antibody, human IgG1, kappa, lambda, L234A L235A)
chain 1: DVLMTQTPLSLPVSLGDQAAISCRSSQSIVHSNGNTYLEWYLQKPGQSPKVLIYKVSNRFSGVPDRFSGSGSGTDFTLKISRVEAEDLGVYYCFQGSHVPYTFGGGTKLEIKRTVAAPSVFIFPPSDEQLKSGTASVVCLLNNFYPREAKVQWKVDNALQSGNSQESVTEQDSKDSTYSLSSTLTLSKADYEKHKVYACEVTHQGLSSPVTKSFNRGECGGGGSEGKSSGSGSESKSTEGKSSGSGSESKSTGGGGSQIQLVQSGPELKKPGETVKISCKASGYTFTNYGVTWVKQAPGKGLKWMGWINTYSGAPTYADDFNGRFALSLETSASTAYLQINNLKNEDTATYFCARLDDYDLYYFDYWGQGTALTVSSASTKGPSVFPLAPSSKSTSGGTAALGCLVKDYFPEPVTVSWNSGALTSGVHTFPAVLQSSGLYSLSSVVTVPSSSLGTQTYICNVNHKPSNTKVDKRVEPKSCDKTHTCPPCPAPEAAGGPSVFLFPPKPKDTLMISRTPEVTCVVVDVSHEDPEVKFNWYVDGVEVHNAKTKPREEQYNSTYRVVSVLTVLHQDWLNGKEYKCKVSNKALPAPIEKTISKAKGQPREPQVYTLPPSREEMTKNQVSLWCLVKGFYPSDIAVEWESNGQPENNYKTTPPVLDSDGSFFLYSKLTVDKSRWQQGNVFSCSVMHEALHNHYTQKSLSLSPG
chain 2: EAVVTQEPSLTVSPGGTVTLTCRSSTGAVTTSNYANWVQEKPGQLPRGLIGGTNKRAPWVPARFSGSLLGGKAALTLSGAQPEDEAEYFCALWYSNLWVFGGGTKLTVLGQPKAAPSVTLFPPSSEELQANKATLVCLISDFYPGAVKVAWKADGSPVNTGVETTTPSKQSNNKYAASSYLSLTPEQWKSHRSYSCQVTHEGSTVEKTVAPAECSGGGGSEGKSSGSGSESKSTEGKSSGSGSESKSTGGGGSEVQLVESGGGLVQPGGSLKLSCAASGFTFNTYAMNWVRQAPGKGLEWVARIRSKYNNYATYYADSVKDRFTISRDDSKNTAYLQMNNLKTEDTAVYYCVRHGNFGNSYVSWFAYWGQGTLVTVSAASTKGPSVFPLAPSSKSTSGGTAALGCLVKDYFPEPVTVSWNSGALTSGVHTFPAVLQSSGLYSLSSVVTVPSSSLGTQTYICNVNHKPSNTKVDKRVEPKSCDKTHTCPPCPAPEAAGGPSVFLFPPKPKDTLMISRTPEVTCVVVDVSHEDPEVKFNWYVDGVEVHNAKTKPREEQYNSTYRVVSVLTVLHQDWLNGKEYKCKVSNKALPAPIEKTISKAKGQPREPQVYTLPPSREEMTKNQVSLSCAVKGFYPSDIAVEWESNGQPENNYKTTPPVLDSDGSFFLVSKLTVDKSRWQQGNVFSCSVMHEALHNRFTQKSLSLSPG
notes: as for B1
With B2, the “EC50 (read off the curve)” value in experiment [4] is roughly 1 nM.

The record behind these values is patent publication US20220251236A1 (Boehringer Ingelheim, published 2022).
